The target of one assay is T1, NAE (Homo sapiens, UniProt Q13564+Q8TBC4).
T1 sequence (Q8TBC4 1-463): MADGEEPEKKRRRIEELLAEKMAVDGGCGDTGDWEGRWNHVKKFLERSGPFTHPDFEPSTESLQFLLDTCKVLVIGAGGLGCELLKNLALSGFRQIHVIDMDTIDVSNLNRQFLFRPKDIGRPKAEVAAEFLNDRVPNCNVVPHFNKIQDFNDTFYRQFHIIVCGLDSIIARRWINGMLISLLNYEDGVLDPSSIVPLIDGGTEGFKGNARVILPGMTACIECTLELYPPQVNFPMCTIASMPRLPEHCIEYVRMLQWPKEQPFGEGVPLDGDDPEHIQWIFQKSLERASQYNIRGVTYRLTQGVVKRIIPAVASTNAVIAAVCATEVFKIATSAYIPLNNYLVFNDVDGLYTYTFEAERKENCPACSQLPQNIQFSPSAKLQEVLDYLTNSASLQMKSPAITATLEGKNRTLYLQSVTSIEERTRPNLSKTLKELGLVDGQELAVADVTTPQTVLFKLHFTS
T1 sequence (Q13564 1-534): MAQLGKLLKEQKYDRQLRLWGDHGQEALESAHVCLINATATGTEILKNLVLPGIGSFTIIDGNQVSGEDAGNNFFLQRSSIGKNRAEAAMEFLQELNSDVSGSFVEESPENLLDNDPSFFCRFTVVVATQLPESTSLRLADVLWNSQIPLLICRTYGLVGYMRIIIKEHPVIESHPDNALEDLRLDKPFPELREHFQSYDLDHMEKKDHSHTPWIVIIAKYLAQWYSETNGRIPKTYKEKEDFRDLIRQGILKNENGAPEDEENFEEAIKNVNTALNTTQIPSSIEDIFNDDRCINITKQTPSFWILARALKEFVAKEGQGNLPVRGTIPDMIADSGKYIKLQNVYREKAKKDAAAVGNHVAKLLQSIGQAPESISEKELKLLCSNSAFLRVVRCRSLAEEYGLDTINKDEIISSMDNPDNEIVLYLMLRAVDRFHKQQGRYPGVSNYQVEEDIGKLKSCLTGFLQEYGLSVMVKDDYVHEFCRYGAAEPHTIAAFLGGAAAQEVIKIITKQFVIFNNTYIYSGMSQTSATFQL
The following applies: covalent adduct with the C-terminus of Nedd8; ref [16], [30]; cited from earlier work.

Another assay relates to CRL substrates. The following applies: ref [31]–[32]; cited from earlier work.
The test system of another assay is tumor growth. The following applies: ref [31]–[32]; cited from earlier work.
The target of assay [1] is Nedd8 activating enzyme (NAE), heterodimer of APPBP1 and Uba3 (UniProt Q13564).

On to `NS(=O)(=O)OC[C@@H]1C[C@@H](n2ccc3c(N[C@H]4CCc5ccccc54)ncnc32)C[C@@H]1O` [MLN4924], for which the NAE inhibition result at NAE is recorded as “potent inhibitor of NAE”. Moreover, the “effect on ubiquitination and degradation of CRL substrates” value in the assay with CRL substrates was “block ubiquitination and degradation of CRL substrates”. In the assay on tumor growth, the “effect on tumor growth” value is “inhibit tumor growth”.

On to “Nedd8 variant ND1 (71LQWFGG76), N-terminal GST fusion (from UniProt Q15843 1-76)”, for which, in assay [1], the K1/2 of the ATP-PPi exchange reaction catalysed by NAE, saturating ATP was determined as 150 µM.

The molecule “Nedd8 variant ND4 (71RLWFGG76), N-terminal GST fusion (from UniProt Q15843 1-76)” returned a K1/2 of the ATP-PPi exchange reaction catalysed by NAE, saturating ATP in assay [1] of 4.5 µM.

Molecule “Nedd8 variant ND20 (71ILTFGG76), N-terminal GST fusion (from UniProt Q15843 1-76)” came in with a K1/2 of the ATP-PPi exchange reaction catalysed by NAE, saturating ATP in assay [1] of 0.45 µM.

For the molecule “wt Nedd8 (71LALRGG76), N-terminal GST fusion (from UniProt Q15843 1-76) (natural protein)”, the K1/2 of the ATP-PPi exchange reaction catalysed by NAE, saturating ATP in assay [1] was determined as 1.3 µM.

The values above are taken from publication PMC3822002 (Chembiochem : a European journal of chemical biology, 2013).
